Laboratory results from patent US20090325869A1 (CHILDREN S HOSPITAL AND RESEARCH CENTER OAKLAND, published 2009).

Target: T1, Ferritin H (frog), wild type, protein nanocage (frog, UniProt P07229 2-176)
T1 sequence (looked up): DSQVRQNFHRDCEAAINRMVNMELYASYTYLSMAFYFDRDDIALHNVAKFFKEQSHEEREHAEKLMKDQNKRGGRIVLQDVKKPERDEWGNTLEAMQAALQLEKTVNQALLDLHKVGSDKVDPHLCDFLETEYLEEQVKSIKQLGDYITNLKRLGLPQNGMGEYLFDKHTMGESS
Assay: cell-based or functional assay

In the case of HSNTYYFPKGG [Peptide 1, synthetic undecapeptide HSNTYYFPKGG], the “rate of ferritin demineralization, fold against wild type ferritin H without peptide” value is reported as 3.3 fold.
